Measured values from patent US20230235054A1 (BIOATLA, published 2023).

T1: cynoNectin4-mFc (cyno, UniProt A0A2K5WES1 32-349)
T1 construct: Immobilized on the SPR chip; also called cyanoNectin4; not shown: mFc (mouse Fc)
T1 sequence: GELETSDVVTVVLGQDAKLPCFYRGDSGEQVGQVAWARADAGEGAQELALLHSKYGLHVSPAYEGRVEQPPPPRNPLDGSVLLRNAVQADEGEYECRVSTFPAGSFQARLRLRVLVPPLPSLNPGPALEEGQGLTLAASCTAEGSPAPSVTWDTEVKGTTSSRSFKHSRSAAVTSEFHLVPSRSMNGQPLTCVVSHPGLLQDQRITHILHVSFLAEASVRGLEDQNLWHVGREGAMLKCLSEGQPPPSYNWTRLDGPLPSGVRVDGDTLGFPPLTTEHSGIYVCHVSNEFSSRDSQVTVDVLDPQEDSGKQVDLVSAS

T2: huNectin4-His (human, UniProt Q96NY8 32-349)
T2 construct: Immobilized on the SPR chip; also called humanNectin4; human Nectin4; not shown: His tag
T2 sequence (looked up): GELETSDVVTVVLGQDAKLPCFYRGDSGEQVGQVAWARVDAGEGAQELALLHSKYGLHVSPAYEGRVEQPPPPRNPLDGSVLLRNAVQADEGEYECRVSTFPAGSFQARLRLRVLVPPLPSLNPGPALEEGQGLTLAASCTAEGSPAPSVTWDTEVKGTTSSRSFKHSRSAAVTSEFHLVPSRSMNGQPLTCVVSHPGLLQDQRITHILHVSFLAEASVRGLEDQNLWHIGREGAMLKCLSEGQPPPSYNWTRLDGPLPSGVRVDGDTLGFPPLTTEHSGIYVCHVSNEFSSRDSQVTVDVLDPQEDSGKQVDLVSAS

T3: cynoNectin4 antigen (cynomolgus (cyno), UniProt A0A2K5WES1 32-349)
T3 construct: construct not described; also called cynomolgus (cyno) Nectin-4
T3 sequence: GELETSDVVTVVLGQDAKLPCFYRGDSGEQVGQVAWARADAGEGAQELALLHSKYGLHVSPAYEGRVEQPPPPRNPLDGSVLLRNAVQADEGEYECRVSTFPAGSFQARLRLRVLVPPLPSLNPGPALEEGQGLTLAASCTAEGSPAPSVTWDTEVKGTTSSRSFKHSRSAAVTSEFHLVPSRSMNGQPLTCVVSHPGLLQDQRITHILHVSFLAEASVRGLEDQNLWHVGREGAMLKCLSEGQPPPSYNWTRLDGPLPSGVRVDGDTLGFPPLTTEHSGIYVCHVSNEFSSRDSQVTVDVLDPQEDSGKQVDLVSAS

T4: human Nectin-4 on cells (human, UniProt Q96NY8 32-510)
T4 construct: whole, on cells; also called HEK293 cells expressing human Nectin-4; T47D cells that express human Nectin-4
T4 sequence (looked up): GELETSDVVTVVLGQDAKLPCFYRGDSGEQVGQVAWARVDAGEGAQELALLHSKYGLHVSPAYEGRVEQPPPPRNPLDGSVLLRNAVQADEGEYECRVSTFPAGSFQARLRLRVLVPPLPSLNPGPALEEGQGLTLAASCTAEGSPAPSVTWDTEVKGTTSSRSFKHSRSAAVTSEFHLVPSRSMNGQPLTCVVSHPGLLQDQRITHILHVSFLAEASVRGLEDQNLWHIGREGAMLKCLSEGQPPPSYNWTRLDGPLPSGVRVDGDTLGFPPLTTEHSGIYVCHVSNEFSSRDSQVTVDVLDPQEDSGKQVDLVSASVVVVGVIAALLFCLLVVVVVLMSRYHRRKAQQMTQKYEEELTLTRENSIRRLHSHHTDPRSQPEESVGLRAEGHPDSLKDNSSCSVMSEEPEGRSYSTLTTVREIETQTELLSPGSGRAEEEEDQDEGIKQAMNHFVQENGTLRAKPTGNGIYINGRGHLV


What was measured:
[1] = target: T1, cynoNectin4-mFc; experiment: SPR, cynoNectin4-mFc immobilized, pH 6.5
Protocol: (§1) Binding kinetics of anti-Nectin4 antibodies were measured by surface plasmon resonance using a SPR2/4 instrument (Sierra Sensors, Hamburg, Germany) and flat amine sensor chips. The SPR sensor contained four flow cells (FC1-FC4), each of which was addressed individually or in groups. huNectin4-His was immobilized in FC2, and cynoNectin4-mFc in FC4. No protein was immobilized in FC1 and FC3 which were used as control surfaces for FC2 and FC4, respectively.
(§2) All injections were done at a flow rate of 25 μL/min at 25° C. The sensor surface was activated with 1-ethyl-3-(3-dimethylaminopropyl)-carbodiimide (EDC) and N-hydroxysuccinimide (NHS) (200 mM/50 mM) for 480 seconds. HuNectin4-His (2 μg/mL in 10 mM NaAc, pH4.5) was injected for 480s and the surface was inactivated by injecting 1M ethanolamine-HCl for 480s. CynoNectin4 was immobilized using the same conditions as described for huNectin4-His, except that the cynoNectin4 was diluted into 10 mM NaAc buffer having pH 5.0. The control surface was activated and deactivated using the same conditions, but without injecting protein. PBST buffer (PBS pH 7.4 with 0.05% TWEEN20™) was used as running buffer for the surface preparation. The running solution was switched to PBST with 30 mM sodium bicarbonate with the pH adjusted as indicated in the figures before the analyte injections. The instrument was equilibrated with the running solution for one hour before the first analyte injection.
(§3) The off-rate was measured for 360s. The chip surface was regenerated after each cycle of interaction analysis by injecting 6 μL of 10 mM glycine (pH 2.0). Flow cells 1 and 3 without immobilized protein were used as control surfaces for reference subtraction.

[2] = target: T2, huNectin4-His; experiment: SPR, huNectin4-His immobilized, pH 6.5
Protocol: as §1, §2, §3

[3] = target: T3, cynoNectin4 antigen; experiment: ELISA, coated antigen, PSB pH 6.0
Protocol: 1) Coat ELISA plates with 100 μL of 1 μg/mL recombinant human Nectin4 antigen or cynoNectin4 antigen in carbonate-bicarbonate coating buffer. […] 2) Cover plates with sealing film and incubate overnight at 4° C. [0444] 3) Decant plates and tap out residual liquid on a stack of paper towels. [0445] 4) Wash wells twice by dispensing 200 μL of pH 6.0 or pH 7.4 ELISA incubation buffer to the wells and completely aspirate the contents. [0446] 5) Add 200 μL of pH 6.0 or pH 7.4 ELISA incubation buffer to the wells. Cover with sealing film and place the plate onto a plate shaker set to 50 rpm for 60 minutes at room temperature. [0447] 6) Decant plates and tap out residual liquid on a stack of paper towels. […] 7) Serially dilute test articles in 3-fold dilutions starting at 3000 ng/mL in pH 6.0 or pH 7.4 ELISA incubation buffer. […] 8) Add 100 μL/well of diluted test articles to the plates [0450] 9) Cover with sealing film and place the plates onto a plate shaker set to 50 rpm for 60 minutes at room temperature. [0451] 10) Decant plates and tap out residual liquid on a stack of paper towels. [0452] 11) Wash wells three times by dispensing 200 μL of pH 6.0 or pH 7.4 ELISA wash buffer to the wells and completely aspirate the contents. […] 12) Dilute the HRP secondary antibody at 1:2500 in pH 6.0 or pH 7.4 ELISA incubation buffer. [0454] […] 14) Cover with sealing film and place the plates onto a plate shaker set to 50 rpm for 60 minutes at room temperature. […] 15) Decant plates and tap out residual liquid on a stack of paper towels. […] 16) Wash wells three times by dispensing 200 μL of pH 6.0 or pH 7.4 ELISA wash buffer to the wells and completely aspirate the contents. [0458] 17) Dispense 50 μL per well of the TMB substrate solution into all wells of the plates.

[4] = target: T4, human Nectin-4 on cells; experiment: FACS, HEK293 cells expressing human Nectin-4
Protocol: FACS analysis was carried out using HEK293 cells expressing human Nectin-4.

| Kd [1] [nM] | Kd [2] [nM] | EC50 [3] [µg/mL] | Ratio (pH 7.4/6.0) of EC50 [4] | koff [1] [s⁻¹] | kon [1] [M⁻¹ s⁻¹] | koff [2] [s⁻¹] | kon [2] [M⁻¹ s⁻¹] | Binder |
| --- | --- | --- | --- | --- | --- | --- | --- | --- |
| 0.209 | 0.102 | 0.0146 | – | – | – | – | – | BAP-143-wildtype (antibody, V domains shown, 150 kDa used in SPR; also called BAP143-00-00; benchmark (BM)) VH: EVQLVESGGGLVQPGGSLRLSCAASGFTFSSYNMNWVRQAPGKGLEWVSYISSSSSTIYYADSVKGRFTISRDNAKNSLSLQMNSLRDEDTAVYYCARAYYYGMDVWGQGTTVTVSS VL: DIQMTQSPSSVSASVGDRVTITCRASQGISGWLAWYQQKPGKAPKFLIYAASTLQSGVPSRFSGSGSGTDFTLTISSLQPEDFATYYCQQANSFPPTFGGGTKVEIK |
| – | – | 0.0395 | 2.8 | – | – | – | – | BAP-143-06-33-03 (antibody, V domains shown, Used as a conjugate with a linker payload (CAB ADC)) VH: QVQLVQSGAEVKKPGASVKVSCKASGFTFSSYNMNWVRQARGQRLEWIGYISSSSSTIYYADSVKGRFTISRDNSKNTLYLQMNSLRAEDTAVYYCARAYYYGMDKWGQGTLVTVSS VL: DIQMTQSPSSVSASVGDRVTITCRASQGISGWLAWYQQKPGKAPKFLIYAASTLQSGVPSRFSGSGSGTDFTLTISSLQPEDFATYYCQQANSEPPTFGGGTKVEIK |
| 0.0534 | 0.00487 | 0.0261 | 1.4 | 8.99e-05 | 1.68e+06 | 9.92e-06 | 2.04e+06 | BAP-143-06-24-16 (antibody, V domains shown, Used as a conjugate with a linker payload (CAB ADC)) VH: EVQLVQSGAEVKKPGATVKISCKVSGFTFSSYNMNWIRQSPSRGLEWLGYISSSSSTIYYADSVKGRFTISRDNSKNTLYLQMNSLRAEDTAVYYCARAYYYGDDVWGQGTLVTVSS VL: DIQMTQSPSSVSASVGDRVTITCHASQGISGWLAWYQQKPGKAPKFLIYAASTLQSGVPSRFSGSGSGTDFTLTISSLQPEDFATYYCQQANSFPPTFGGGTKVEIK |
| 1.6 | 0.641 | 0.0239 | 2 | 0.000876 | 549000 | 0.000483 | 754000 | BAP-143-07-03-12 (antibody, V domains shown, Used as a conjugate with a linker payload (CAB ADC)) VH: EVQLVESGGGLVQPGGSLRLSCAASGFTFSSYNMNWVRQAPGKGLEWVSYISSSSSTIYYADSVKGRFTISRDNAKNSLSLQMNSLRDEDTAVYYCARAYYYGMDKWGQGTTVTVSS VL: DIQMTQSPSSVSASVGDRVTITCRASQGISGWEAWYQQKPGKAPKFLIYAASTLQSGVPSRFSGSGSGTDFTLTISSLQPEDFATYYCQQANSFPPTFGGGTKVEIK |
| 1.88 | 0.785 | – | 2.2 | 0.000859 | 457000 | 0.000474 | 605000 | BAP-143-00-01 (antibody, V domains shown, Used as a conjugate with a linker payload (CAB ADC)) VH: EVQLVESGGGLVQPGGSLRLSCAASGFTFSSYNMNWVRQAPGKGLEWVSYISSSSSTIYYADSVKGRFTISRDNAKNSLSLQMNSLRDEDTAVYYCARAYYYGMDVWGQGTTVTVSS VL: DIQMTQSPSSVSASVGDRVTITCRASQGISGWEAWYQQKPGKAPKFLIYAASTLQSGVPSRFSGSGSGTDFTLTISSLQPEDFATYYCQQANSFPPTFGGGTKVEIK |
| 0.163 | 0.0282 | 0.0384 | 1.5 | 0.00026 | 1.6e+06 | 5.94e-05 | 2.11e+06 | BAP-143-06-33-16 (antibody, V domains shown, Used as a conjugate with a linker payload (CAB ADC)) VH: EVQLVQSGAEVKKPGATVKISCKVSGFTFSSYNMNWIRQSPSRGLEWLGYISSSSSTIYYADSVKGRFTISRDNSKNTLYLQMNSLRAEDTAVYYCARAYYYGDDVWGQGTLVTVSS VL: DIQMTQSPSSVSASVGDRVTITCRASQGISGWEAWYQQKPGKAPKFLIYAASTLQSGVPSRFSGSGSGTDFTLTISSLQPEDFATYYCQQANSFPPTFGGGTKVEIK |
